This is an account of results in patent US20250082770A1 (SYNAFFIX B V, published 2025).

A value given as a limit tells only on which side of the number the result lay.

In one test the target is T1, CEACAM5 on MKN-45 cells (UniProt P06731 35-702, limits assumed).
T1 sequence (looked up): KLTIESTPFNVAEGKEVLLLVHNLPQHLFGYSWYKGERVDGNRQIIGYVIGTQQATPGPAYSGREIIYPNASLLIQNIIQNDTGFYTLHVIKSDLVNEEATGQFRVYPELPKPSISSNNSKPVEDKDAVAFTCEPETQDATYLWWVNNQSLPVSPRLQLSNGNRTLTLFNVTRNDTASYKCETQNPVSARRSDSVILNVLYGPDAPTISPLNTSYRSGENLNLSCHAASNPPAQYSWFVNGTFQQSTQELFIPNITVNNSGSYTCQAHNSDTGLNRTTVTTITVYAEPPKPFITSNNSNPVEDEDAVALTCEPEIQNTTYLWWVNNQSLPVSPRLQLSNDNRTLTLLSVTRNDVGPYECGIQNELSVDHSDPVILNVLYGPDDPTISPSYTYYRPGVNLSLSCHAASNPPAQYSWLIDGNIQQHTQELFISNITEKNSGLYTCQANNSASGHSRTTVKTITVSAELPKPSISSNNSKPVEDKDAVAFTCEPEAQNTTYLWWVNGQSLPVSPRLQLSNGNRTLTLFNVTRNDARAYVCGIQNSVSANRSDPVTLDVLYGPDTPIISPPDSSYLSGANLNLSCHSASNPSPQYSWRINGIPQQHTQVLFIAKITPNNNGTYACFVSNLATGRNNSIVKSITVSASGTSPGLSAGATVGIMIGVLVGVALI
The experiment in a line: cell-based or functional assay.

The target of test [1] is T2, Human CEACAM5 (CD66e protein, His Tag, Sino Biological) (human, UniProt P06731 35-685).
T2 construct: Bought His-tagged protein captured on nickel NTA plates; also called hCEACAM5; hCD66e; not shown: His tag
T2 sequence (looked up): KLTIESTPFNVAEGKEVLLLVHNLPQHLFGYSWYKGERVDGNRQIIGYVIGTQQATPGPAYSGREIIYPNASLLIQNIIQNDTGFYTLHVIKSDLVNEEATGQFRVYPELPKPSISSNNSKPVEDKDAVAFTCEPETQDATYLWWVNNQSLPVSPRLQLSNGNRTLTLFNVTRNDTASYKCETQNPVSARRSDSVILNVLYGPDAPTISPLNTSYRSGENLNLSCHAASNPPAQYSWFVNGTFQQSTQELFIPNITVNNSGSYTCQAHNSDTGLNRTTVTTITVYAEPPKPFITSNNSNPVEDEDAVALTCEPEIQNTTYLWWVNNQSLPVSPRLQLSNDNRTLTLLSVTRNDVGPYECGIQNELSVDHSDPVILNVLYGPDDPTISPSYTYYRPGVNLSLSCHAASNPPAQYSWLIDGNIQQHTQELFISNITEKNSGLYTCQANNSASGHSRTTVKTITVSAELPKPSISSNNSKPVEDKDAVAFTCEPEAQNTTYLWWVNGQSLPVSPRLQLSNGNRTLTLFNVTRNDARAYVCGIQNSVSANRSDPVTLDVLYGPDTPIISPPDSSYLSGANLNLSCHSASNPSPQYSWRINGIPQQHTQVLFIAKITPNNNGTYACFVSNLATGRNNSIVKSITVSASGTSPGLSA
The test can be described thus: ELISA, His-tagged antigen on nickel NTA plate, anti-human IgG-HRP detection. How it is done: (§1) Nickel NTA plates (Pierce™ Nickel coated plated, ThermoScientific™) were washed three times prior to use. Human CEACAM5 (CD66e protein, His Tag, Sino Biological), human CEACAM6 (CD66c protein, His Tag, Sino Biological) and cynomolgus CEACAM5 (CD66e protein, His Tag, Sino Biological) were dissolved at a concentration of 0.05 μg/mL in 0.1% BSA in PBS (PBA). 100 μL was added to each well and incubated while shaking for 1 hour at room temperature. After removal, the plate was washed 3× with 0.05% Tween-20 in PBS (washing buffer). ADCs were diluted in 0.1% PBA to a final concentration of 8 μg/mL and 100 μL was added to each well (in triplo). ADCs were incubated for 1 h at room temperature. Prior to the addition of 100 μL 1:100 dilution of secondary antibody (Goat anti-human IgG, HRP conjugate, Invitrogen) the plate was washed 3× with washing buffer. The plate was incubated again for 1 h at room temperature and subsequently washed 3× with washing buffer and 3× with PBS. Finally, 100 μL TMB ELISA substrate (1 Step™ Turbo TMB ELISA substrate, ThermoScientific™) was added and incubated for 1 minute. The absorbance of the colorimetric signal was measured with Infinite® M1000 (Tecan) at 605 nm. Data was plotted corrected for the background (see FIGS. 9).
Background: An ELISA detects its analyte on a solid surface through an enzyme-linked reagent.

For test [2], the target named is T3, human CEACAM6 (CD66c protein, His Tag, Sino Biological) (human, UniProt P40199 35-320).
T3 construct: Bought His-tagged protein captured on nickel NTA plates; also called hCEACAM6; hCD66c; not shown: His tag
T3 sequence (looked up): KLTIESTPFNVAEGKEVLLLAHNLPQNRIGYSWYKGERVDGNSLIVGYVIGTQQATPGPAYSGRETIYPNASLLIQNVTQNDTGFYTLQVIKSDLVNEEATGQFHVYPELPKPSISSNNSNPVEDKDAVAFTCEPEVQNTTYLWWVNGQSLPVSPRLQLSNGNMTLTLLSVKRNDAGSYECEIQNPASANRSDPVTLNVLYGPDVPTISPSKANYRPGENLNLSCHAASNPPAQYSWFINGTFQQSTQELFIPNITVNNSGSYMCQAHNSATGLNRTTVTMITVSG
The test is described as above. The protocol: as §1

B1: labetuzumab-3 (antibody, human IgG1, kappa, V domains shown)
VH: EVQLVESGGGVVQPGRSLRLSCSASGFDFTTYWMSWVRQAPGKGLEWIGEIHPDSSTINYAPSLKDRFTISRDNAKNTLFLQMDSLRPEDTGVYFCASLYFGFPWFAYWGQGTPVTVSS
VL: DIQLTQSPSSLSASVGDRVTITCKASQDVGTSVAWYQQKPGKAPKLLIYWTSTRHTGVPSRFSGSGSGTDFTFTISSLQPEDIATYYCQQYSLYRSFGQGTKVEIKR
modifications: heavy-chain glycan trimmed to core GlcNAc, 6-N3-GalNAc attached and reacted with BCN-HS-PEG2-HS-(va-PAB-Ex)2 3 (exatecan payload); average DAR 3.90
For the molecule B1, the “MKN-45, IC50” value with CEACAM5 on MKN-45 cells was found to be 6.5 nM.

B2: labetuzumab (antibody, human IgG1, kappa, V domains shown)
VH: B1 VH
VL: B1 VL
notes: IgG transiently expressed in CHO K1 cells; also called labetuzumab (II); hMN-14
In the case of B2, the results for the binding result in test [1] and in test [2] were “binds” and “no binding (tested: 8 µg/mL)”, respectively.

B3: B12-3 (antibody, human IgG1, kappa, V domains shown)
VH: QVQLVQSGAEVKKPGASVKVSCQASGYRFSNFVIHWVRQAPGQRFEWMGWINPYNGNKEFSAKFQDRVTFTADTSANTAYMELRSLRSADTAVYYCARVGPYSWDDSPQDNYYMDVWGKGTTVIVSS
VL: EIVLTQSPGTLSLSPGERATFSCRSSHSIRSRRVAWYQHKPGQAPRLVIHGVSNRASGISDRFSGSGSGTDFTLTITRVEPEDFALYYCQVYGASSYTFGQGTKLERKR
modifications: heavy-chain glycan trimmed to core GlcNAc, 6-N3-GalNAc attached and reacted with BCN-HS-PEG2-HS-(va-PAB-Ex)2 3 (exatecan payload); average DAR 3.75
As to B3, in the test with CEACAM5 on MKN-45 cells, the “MKN-45, IC50” value is over 100 nM.

B4: tusamitamab-DM4 (antibody, human IgG1, kappa, V domains shown)
VH: EVQLQESGPGLVKPGGSLSLSCAASGFVFSSYDMSWVRQTPERGLEWVAYISSGGGITYAPSTVKGRFTVSRDNAKNTLYLQMNSLTSEDTAVYYCAAHYFGSSGPFAYWGQGTLVTVSS
VL: DIQMTQSPASLSASVDRVTITCRASENIFSYLAWYQQKPGKSPKLLVYNTRTLAEGVPSRFSGSGSGTDFSLTISSLQPEDFATYYCQHHYGTPFTFGSGTKLEIKR
modifications: SPDB-DM4 conjugated, sites not stated; average DAR 3.4
On to B4, for which, in the test with CEACAM5 on MKN-45 cells, the “MKN-45, IC50” value was determined as 2.6 nM.

B5: tusamitamab (antibody, human IgG1, kappa, V domains shown)
VH: B4 VH
VL: B4 VL
notes: IgG transiently expressed in CHO K1 cells; also called tusamitamab (I); huMAb2-3
In the case of B5, in test [2], the binding result was “no binding (tested: 8 µg/mL)”.

B6: tusamitamab-3 (antibody, human IgG1, kappa, V domains shown)
VH: B4 VH
VL: B4 VL
modifications: heavy-chain glycan trimmed to core GlcNAc, 6-N3-GalNAc attached and reacted with BCN-HS-PEG2-HS-(va-PAB-Ex)2 3 (exatecan payload); average DAR 3.89
Regarding B6, the “MKN-45, IC50” value with CEACAM5 on MKN-45 cells was found to be 3.4 nM.

B7: tusamitamab-6 (antibody, human IgG1, kappa, V domains shown)
VH: B4 VH
VL: B4 VL
modifications: heavy-chain glycan trimmed to core GlcNAc, 6-N3-GalNAc attached and reacted with BCN-HS-PEG2-HS-(vc-PABA-Ahx-May)2 6 (maytansinoid payload); average DAR 3.85
B7: the “MKN-45, IC50” value with CEACAM5 on MKN-45 cells was 0.88 nM.
